Like-named read-outs stand apart in the source and are kept apart here. Numbered stars: 1 amine (or outer) side, 2 acyl side, 3 side chain; on linkers, the order of the positions; unused ones are H or OH. Square brackets hold non-standard residues; d marks the D form. Side chains are listed from the residue outwards. Ends that are not written are not given here. Peptide text beside a SMILES is read from it. C18 = C18 fatty acid (C16-C22 fatty acids conjugated via γGlu/8-amino-3,6-dioxaoctanoic acid spacers); γGlu = O=C(O)[C@H](CCC(=O)[*:2])N[*:1]; AEEA = NCCOCCOCC(=O)O; Aib = CC(C)(N)C(=O)O; MAL = maleimide
T1: human glucose-dependent insulinotropic polypeptide receptor (GIPR), expressed on CHO-K1 cells (human, UniProt P48546 22-466)
T1 sequence (looked up): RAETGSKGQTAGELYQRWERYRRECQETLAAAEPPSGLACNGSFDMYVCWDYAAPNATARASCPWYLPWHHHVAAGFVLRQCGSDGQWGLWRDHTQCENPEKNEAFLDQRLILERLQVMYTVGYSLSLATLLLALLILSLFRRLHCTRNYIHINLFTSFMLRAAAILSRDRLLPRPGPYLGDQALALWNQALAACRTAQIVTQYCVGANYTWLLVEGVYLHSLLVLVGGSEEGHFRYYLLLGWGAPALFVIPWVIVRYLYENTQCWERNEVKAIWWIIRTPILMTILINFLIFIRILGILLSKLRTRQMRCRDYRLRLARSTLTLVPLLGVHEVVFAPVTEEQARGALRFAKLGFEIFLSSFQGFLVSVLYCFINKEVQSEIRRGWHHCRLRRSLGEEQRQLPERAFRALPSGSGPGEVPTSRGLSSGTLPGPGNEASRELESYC


Key:
[1] = In vitro enzymatic stability against FaSSIF/P (pancreatin in FaSSIF, pH 6.5); type: in vitro ADME; settings: simulated gi fluid, pH 6.5, Half-life (min)
Experimental: This study was conducted to determine the enzymatic stability of SEQ ID NOs. 77, 86, 87, 89, 90, and 91 after biotinylation in artificial intestinal environment. The test samples were prepared by mixing stock solutions of peptide and pancreatin dissolved in FaSSIF solution (pH 6.5) in a weight ratio of 25:1. The test samples were incubated at 37° C. for 120 min. The sampling from test samples was proceeded at the predetermined time points (10, 30, 60, and 120 min) and stopped by 10% TFA solution.
(§1) Analytical HPLC was performed to determine the remaining amount on an ACQUITY Premier system (Waters, USA) with an ACQUITY CSH C18 column (Waters, USA) at 35° C. using 0.1% TFA in water and acetonitrile. The remaining amount was determined as a percentage of the peak area at the sampling time point relative to the peak area of the initial sample.
For the stability against FaSSIF/P, the test samples were prepared by mixing stock solutions of peptide and pancreatin dissolved in FaSSIF solution (pH 6.5) in a weight ratio of 19:1. The test samples were incubated at 37° C. for 120 min. The sampling from test samples was proceeded at the predetermined time points (10, 30, 60, and 120 min) and stopped by 10% TFA solution.

[2] = type: in vitro ADME; settings: pH 7.8
Experimental: For the stability against trypsin, the test samples were prepared by mixing stock solutions of peptide and trypsin dissolved in 50 mM PBS (pH 7.8) containing 0.02% PS80 in a weight ratio of 10:1. The test samples were incubated at 37° C. for 180 min. The sampling from test samples was proceeded at the predetermined time points (10, 30, 60, 90, 120, and 180 min) and stopped by 10% TFA solution.
as §1

[3] = rat, in vivo, iv
Experimental: This study was conducted to evaluate the PK profile of SEQ ID NOs. 77, 102, and 103 and compare the PK profile by the different lipidated structure of peptides in rat plasma by IV administration. SEQ ID NOs. The peptides were delivered at 0.02% PS80 in PBS and dosing volume was 2.5 mL/kg.
The animals were not fasted prior to dosing. 0.2-0.4 mL of whole blood was taken from vein at each time point (0.167, 0.5, 1, 2, 4, 6, 8, 24, and 48 hr after administration) and transferred into the heparin coated tube.
The resulting plasma of 0.1-0.2 mL obtained by centrifugation of the blood samples was transferred into the tube and stored at −70° C. until analysis. The concentrations of peptides in plasma were determined by LC-MS/MS analysis.

[4] = molecular target: T2, human GLP-1 receptor (GLP-1R), expressed on CHO-K1 cells (human, UniProt P43220 24-463); test: cell-based or functional assay
[5] = molecular target: T3, human glucagon receptor (GCGR), expressed on CHO-K1 cells (human, UniProt P47871 26-477); test: cell-based or functional assay
[6] = molecular target: T1, human glucose-dependent insulinotropic …; test: cell-based or functional assay
[7] = molecular target: T2, human GLP-1 receptor (GLP-1R), …; test: cell-based or functional assay; remark: listed apart in the source
[8] = molecular target: T3, human glucagon receptor (GCGR), …; test: cell-based or functional assay; remark: listed apart in the source
[9] = molecular target: T1, human glucose-dependent insulinotropic …; test: cell-based or functional assay; remark: listed apart in the source
[10] = molecular target: T2, human GLP-1 receptor (GLP-1R), …; test: cell-based or functional assay; remark: listed apart in the source
[11] = molecular target: T3, human glucagon receptor (GCGR), …; test: cell-based or functional assay; remark: listed apart in the source
[12] = molecular target: T1, human glucose-dependent insulinotropic …; test: cell-based or functional assay; remark: listed apart in the source
[13] = molecular target: T2, human GLP-1 receptor (GLP-1R), …; test: cell-based or functional assay; remark: listed apart in the source
[14] = molecular target: T3, human glucagon receptor (GCGR), …; test: cell-based or functional assay; remark: listed apart in the source
[15] = molecular target: T1, human glucose-dependent insulinotropic …; test: cell-based or functional assay; remark: listed apart in the source
[16] = molecular target: T2, human GLP-1 receptor (GLP-1R), …; test: cell-based or functional assay; remark: listed apart in the source
[17] = molecular target: T3, human glucagon receptor (GCGR), …; test: cell-based or functional assay; remark: listed apart in the source
[18] = molecular target: T1, human glucose-dependent insulinotropic …; test: cell-based or functional assay; remark: listed apart in the source

T3 sequence (P47871 26-477): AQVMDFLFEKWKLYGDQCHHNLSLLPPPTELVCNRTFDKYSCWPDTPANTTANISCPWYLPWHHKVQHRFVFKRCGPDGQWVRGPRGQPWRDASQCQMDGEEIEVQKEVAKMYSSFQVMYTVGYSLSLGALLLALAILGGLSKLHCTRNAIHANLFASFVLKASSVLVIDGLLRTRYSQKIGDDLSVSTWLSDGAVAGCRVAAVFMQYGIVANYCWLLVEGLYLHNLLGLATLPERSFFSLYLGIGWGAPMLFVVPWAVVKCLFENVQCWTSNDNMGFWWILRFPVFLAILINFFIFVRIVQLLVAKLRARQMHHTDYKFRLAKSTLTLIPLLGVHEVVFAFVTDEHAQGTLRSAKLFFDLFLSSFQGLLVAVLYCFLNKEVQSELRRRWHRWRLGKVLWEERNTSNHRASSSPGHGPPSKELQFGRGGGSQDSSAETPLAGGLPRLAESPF

Row | Molecule | EC50 (nM), cAMP assay [4] [nM] | EC50 (nM), cAMP assay [5] [nM] | EC50 (nM), cAMP assay [6] [nM] | Activity relative to GLP-1 (%) [7] [%] | Activity relative to GLP-1 (%) [8] [%] | Activity relative to GLP-1 (%) [9] [%] | Relative % to native ligand [10] [%] | Relative % to native ligand [11] [%] | Relative % to native ligand [12] [%] | Ratio vs. GLP-1R [13] | Ratio vs. GLP-1R [14] | Ratio vs. GLP-1R [15] | Relative % to non-lipidated peptide [16] [%] | Relative % to non-lipidated peptide [17] [%] | Relative % to non-lipidated peptide [18] [%] | also measured
1 | CC[C@H](C)[C@H](NC(=O)[C@H](CC(C)C)NC(=O)[C@H](Cc1c[nH]c2ccccc12)NC(=O)[C@H](CC(C)C)NC(=O)[C@@H](NC(=O)[C@H](Cc1ccccc1)NC(=O)[C@H](CC(=O)O)NC(=O)CNC(=O)[C@H](C)NC(=O)[C@H](Cc1c[nH]c2ccccc12)NC(=O)[C@@H]1CCCN1C(=O)CNC(=O)[C@H](CC(=O)O)NC(=O)[C@H](CC(C)C)NC(=O)[C@H](Cc1ccc(O)cc1)NC(=O)[C@H](Cc1c[nH]c2ccccc12)NC(=O)[C@H](CO)NC(=O)[C@H](CCCCN)NC(=O)[C@H](CC(=O)O)NC(=O)[C@H](CO)NC(=O)[C@@H](NC(=O)[C@H](Cc1ccccc1)NC(=O)[C@@H](NC(=O)CNC(=O)[C@H](CCC(N)=O)NC(=O)C(C)(C)NC(=O)[C@@H](N)Cc1c[nH]cn1)[C@@H](C)O)[C@@H](C)O)C(C)C)C(=O)N[C@@H](CCC(=O)O)C(=O)NCC(=O)NCC(=O)N1CCC[C@H]1C(=O)N[C@@H](CO)C(=O)N[C@@H](CO)C(=O)NCC(=O)N[C@@H](C)C(=O)N1CCC[C@H]1C(=O)N1CCC[C@H]1C(=O)N1CCC[C@H]1C(=O)N[C@@H](CO)C(=O)N[C@@H](CS)C(=O)O [compound 77, HAibQGT FTSDKSWYLDGPWAGDFVLWLIEGGPSSGAPPPSC] (H-H[Aib]QGTFTSDKSWYLDGPWAGDFVLWLIEGGPSSGAPPPSC-OH; N-terminus and C-terminus assumed) | – | – | – | – | – | – | – | – | – | – | – | – | – | – | – | half-life [1]: 39.4 min; half-life ([1]; FaSSIF/P): 36.9 min; half-life [2]: 92.5 min; PK parameter values (half-life and AUCinf/dose), comparison in words [3]: significantly low; AUCinf/dose ([3]; 100 nmol/kg): 156.76 ± 27.16 kg·h/L; half-life ([3]; 100 nmol/kg): 427 ± 24 min
2 | Y[Aib]QGTFTSDYSKYLDYMMARDFVQWLIEGGPSSGAPPPSC-NH2 (not fully specified (residue 40)) [Peptide No. 5-1A] | 0.269 | 0.576 | 53.9 | 100 | 13 | 1 | 187 | 24 | 1 | 100 | 13 | 1 | 159 | 0 | 11 | –
3 | Y[Aib]QGTFTSDYSKYLDYMMQRDFVQWLIEGGPSSGAPPPSC-NH2 (not fully specified (residue 40)) [Peptide No. 5-2A] | 0.348 | 23 | 24.7 | 100 | 0 | 2 | 145 | 1 | 3 | 100 | 0 | 2 | 29 | 1 | 0.4 | –
4 | H[Aib]QGTFTSDYSKLLDYMMQRDFVQWLLEGGPSSGAPPPSC([MAL-AEEA-AEEA-γGlu-C18])-NH2 [Peptide No. 5-5A] | 0.0747 | 9.43 | 5.17 | 100 | 0 | 2 | 673 | 1 | 14 | 100 | 0 | 2 | 40 | 1 | 3 | –

— patent US20250296960A1, “PEPTIDE COMPOSITIONS AND METHODS OF USE THEREOF” (priority 2022, published 2025)
